Assays:
[1] = tested on: male BALB/c mice; test: Intraperitoneal administration to mice, observation of appearance; assay type: in vivo; conditions: 10 mg/kg intraperitoneally, 6 weeks age
[2] = tested on: intestinal mucosae; test: Example 1: nutritional (trophic) effect on the intestinal mucosae of rats fed an elemental nutrition; assay type: in vivo, male SD rats
Procedure: An experiment was performed in male SD rats weighing 140-160 g which had been fed on standard food under light-dark condition of a cycle of 12 hours. The food which was replaced by an elemental nutrition (Elental®, Morishita-Roussel Japan) was taken ad lib., and remained unchanged until the experiment was finished. After feeding on the component nutrition for 3 days, administration of glicentin prepared as described below was started.
Gelatin was dissolved in warm water to a weight ratio of 16%, and the solution autoclaved and cooled to room temperature. To 40 ml of the gelatin solution was added a solution of 1 mg of glicentin in 10 ml of distilled water with stirring at room temperature. The mixture was divided into test tubes, freeze dried and stored for use.
The gelatin solution was subcutaneously given at a dose of 10 μg per glicentin every 12 hours for 7 days to examine a nutritional effect of glicentin on the intestinal mucosae. A similar gelatin solution containing no glicentin was given for the same period of time as a control for comparison. Twelve hours after completion of the final administration, the rats were sacrificed and subjected to removal of the small intestine in the region from the Treitz's ligamentum to the cecum. The removed small intestine was cut at the central site to separate it into the jejunum and the ileum. The lumen of each of the intestinal tracts was gently washed with an aqueous physiological saline solution. The intestinal tracts were longitudinally incised, respectively, and tissues were removed of a portion of the jejunum in proximity to the duodenum, a portion of the ileum in proximity to the cecum and a portion around the boundary between the jejunum and the ileum and fixed in a 3.7% formalin solution as the proximal, distal and middle sites of the small intestine, respectively. Mucosae were collected by ablation with a spatula from the remainder of the intestinal tracts and weighed, respectively.
The tissues fixed in the formalin solution were embedded in paraffin to form a preparation which was stained with hematoxylin-eosin and measured for height of the villi using an optical microscope.

[3] = tested on: intestinal mucosa; test: Example 2: weight of intestinal mucosa in rats, glicentin compared with related peptides; assay type: in vivo; conditions: 1 nmol per rat s.c.
[4] = tested on: motility of the digestive tracts; test: Example 3: motility of the digestive tracts after meal in dogs (strain gauge transducers); assay type: in vivo, hybrid dogs
Procedure: An experiment was performed as described below in order to examine the action of glicentin on a motility of the digestive tracts after meal.
Six hybrid dogs weighing 16-18 kg were sutured with strain gauge transducers (manufactured by Star Medical, F121S) at a site of the gastric antrum 4 cm from the pyloric ring, a site of the duodenum for the main incurrent pancreatic duct and a site of the jejunum 10 cm from the Treitz's ligamentum, respectively, to measure the contractile force intensity of the circular muscle. Recovery period for the suture was 2 weeks.
Three of the 6 dogs were intravenously given over 1 hour 15 ml of a physiological saline solution in which 400 pmol of glicentin had been dissolved per kg of bodyweight. The remaining three received an aqueous physiological solution containing no glicentin in the same way as above as a control for comparison. The dogs were fed on 15 g of a solid diet (SD®, manufactured by Oriental Yeast K.K.) and 15 g of Vitaone® (manufactured by Nihon Pet Food K.K. and Kyodo Shiryo K.K.) per kg of bodyweight simultaneously with the intravenous administration.
Then, the motor activity of the digestive tracts and length of the post-feed period were measured. Intensity of the contraction in the post-feed period was integrated for the two-hour measurements and evaluated in comparison with the mean level of the signal peak in phase 3 motor activity of the intestinal tracts in hunger and taken as a motor index.

[5] = 10 μg s.c. every 12 hours for 7 days
[6] = 10 μg s.c. every 12 hours for 7 days, hematoxylin-eosin, optical microscope
[7] = 400 pmol/kg i.v. over 1 hour, post-feed contraction integrated over two hours, relative to phase 3 peak in hunger
[8] = 400 pmol/kg i.v., versus control

B1: glicentin (protein)
chain: RSLQDTEEKSRSFSASQADPLSDPDQMNEDKRHSQGTFTSDYSKYLDSRRAQDFVQWLMNTKRNRNNIA
notes: peptide of 69 amino acid residues, one of the enteroglucagons; human glicentin prepared by genetic engineering procedure
change in appearance [1]: no change in appearance is observed
Ileal mucosal weight [2, 5]: 1.04 g
Ileal mucosal weight per 100 g bodyweight [2, 5]: 0.57 g/100 g bodyweight
Jejunal mucosal weight [2, 5]: 1.3 g
Jejunal mucosal weight per 100 g bodyweight [2, 5]: 0.75 g/100 g bodyweight
Length of small intestine [2, 5]: 107.0 cm
Length of small intestine per 100 g bodyweight [2, 5]: 66.4 cm/100 g bodyweight
Whole small intestinal mucosal weight [2, 5]: 2.38 g
Whole small intestinal mucosal weight per 100 g bodyweight [2, 5]: 1.32 g/100 g bodyweight
Villous height in distal intestine [2, 6]: 216 ± 8.4 μm
Villous height in middle intestine [2, 6]: 354 ± 7.5 μm
Villous height in proximal intestine [2, 6]: 546 ± 18.6 μm
effect on ileal mucosa (in words) ([2]; versus control group): tendency to increase
effect on jejunal mucosal weight (in words) ([2]; versus control group): significantly increases
effect on length of the small intestine (in words) ([2]; versus control group): tendency to increase
effect on whole small intestinal mucosal weight including jejunum and ileum (in words) ([2]; versus control group): significantly increases
effect on the weight of intestinal mucosa (in words) ([3]; versus control group): significantly increases
Intestinal mucosal weight ([3]; third quarter of the small intestine from the duodenum): 0.614 ± 0.025 g
Length of post-feed period ([4]; 400 pmol/kg i.v. over 1 hour, given with feeding): 13.6 ± 1.0 h
Motor index, duodenum [4, 7]: 0.675 ± 0.4
Motor index, jejunum [4, 7]: 1.087 ± 0.2
Motor index, stomach vestibulum [4, 7]: 0.878 ± 0.1
influence upon the length of the post-feed period (in words) [4, 8]: no influence
post-feed motility in the vestibulum of stomach (in words) [4, 8]: inhibited

From patent US5432156A, “Therapeutic agent for digestive tract diseases” (Nisshin Flour Milling Co., Ltd., priority 1993, dated 1995)
